The target in experiment [1] is CA IX catalytic domain protein (CA9-CD) (human, UniProt Q16790 138-391). The experiment in a line: ELISA on CA9-CD (catalytic domain). In general terms: ELISA stands for enzyme-linked immunosorbent assay.
Experiment [2] concerns the target CA-IX-His-ECD (his-V5 tagged version of the CA IX protein, extracellular domain) (human, UniProt Q16790 38-414). Description: ELISA on CA-IX-His-ECD.

B1: AB-MN-22.30 (antibody, human IgG2, V domains shown)
VH: QVQLVESGGGVVQPGRSLRLSCAASGFTFSSYAMHWVRQAPGKGLEWVAVIWYDGSTKYYADSVKGRFTISRDNSKNTLYLQMNSLRAEDTAVYYCARDRGLLWFGELSPHYGMDVWGQGTTVTVSS
VL: DIQMTQSPSSLSASVGDRVTITCRASQGIRNDLGWYQQKPGKAPKRLIYAASSLQSGVPSRFSGSGSGTDFTLTISSLQPEDFATYYCLQHYSYPLTFGGGTKVEIK
notes: also called AX014H22-30
On to B1, for which the OD in experiment [1] turned out to be 2.46 OD; in experiment [2] it was 2.2 OD.

B2: AB-MN-22.29 (antibody, human IgG2, V domains shown)
VH: QVQLQESGPGLVKPSETLSLTCTVSGGSISSYYWSWIRQPAGKGLEWIGRIYTSGSTNYNPSLKSRVTMSVDTSKNQFSLKLSSVTAADTAVYYCARDGQWLEDYGMDVWGQGTTVTVSS
VL: DIQMTQSPSSVSASVGDRVTITCRASQGISSWLAWFQQKPGKAPKLLIYAASSLQSGVPSRFSGSGSGTDFTLTISSLQPEDFATYYCQQANSFPITFGQGTRLEIK
notes: also called AX014H22-29
Take B2: the OD in experiment [1] came out at 2.52 OD; in experiment [2] it was 1.96 OD.

(Values after patent US20040018198A1 (Amgen, published 2004).)
